# Results as given in publication PMC13276077.
# Changes are numbered by the printed parent chain.
# B1: 15-N601-15 nucleosome -1 meCpG (nucleosome)
# DNA 1: ATGGAACACATTGCACAGGATGTATATATCTGACACGTGCCTGGAGACTAGGGAGTAATCCCCTTGGCGGTTAAAACGCGGGGGACAGCGCGTACGTGCGTTTAAGCGGTGCTAGAGCTGTCTACGACCAATTGAGCGGCCTCGGCACCGGGATTCTCCAGGGCGGCCGCGTATT
# DNA 2: AATACGCGGCCGCCCTGGAGAATCCCGGTGCCGAGGCCGCTCAATTGGTCGTAGACAGCTCTAGCACCGCTTAAACGCACGTACGCGCTGTCCCCCGCGTTTTAACCGCCAAGGGGATTACTCCCTAGTCTCCAGGCACGTGTCAGATATATACATCCTGTGCAATGTGTTCCAT
# modifications: meCpG at -1
# B2: 15-N601-15 nucleosome -61 meCpG (nucleosome)
# DNA 1: B1 DNA 1
# DNA 2: B1 DNA 2
# modifications: meCpG at -61 (GGCACCGGGATT)
# B3: 16-N603-30 +91 CG free DNA 91 meCpG (dsDNA)
# DNA 1: GAGCCACAAAACCGGCGACGCTCACGGGTGCCCAGTTCGCGCGCCCACCTACCGTGTGAAGTCGTCACTCGGGCTTCTAAGTACGCTTAGCGCACGGTAGAGCGCAATCCAAGGCTAACCACCGTGCATCGATGTTGAAAGAGGCCCTCCGTCCTTATTACTTCAAGTCCCTGGGGTACCCGTTTCACTGCCA
# DNA 2: TGGCAGTGAAACGGGTACCCCAGGGACTTGAAGTAATAAGGACGGAGGGCCTCTTTCAACATCGATGCACGGTGGTTAGCCTTGGATTGCGCTCTACCGTGCGCTAAGCGTACTTAGAAGCCCGAGTGACGACTTCACACGGTAGGTGGGCGCGCGAACTGGGCACCCGTGAGCGTCGCCGGTTTTGTGGCTC
# modifications: meCpG at 91
# B4: 16-N603-30 free DNA 91 meCpA (dsDNA)
# DNA 1: B3 DNA 1 with C12T, G14A, G15C
# DNA 2: B3 DNA 2 with C179G, C180T, G182A
# modifications: asymmetric meCpA at 91
# B5: 16-N603-30 +81 CG free DNA 81 meCpG (dsDNA)
# DNA 1: B3 DNA 1 with C12T, G14A, G15C, T22C, A24G, C25G
# DNA 2: B3 DNA 2 with G169C, T170C, A172G, C179G, C180T, G182A
# modifications: meCpG at 81
# B6: 16-N603-30 free DNA 81 meCpA (dsDNA)
# DNA 1: B3 DNA 1 with C12T, G14A, G15C
# DNA 2: B3 DNA 2 with C179G, C180T, G182A
# modifications: asymmetric meCpA at 81
# B7: 16-N603-30 free DNA unmethylated (dsDNA)
# DNA 1: B3 DNA 1 with C12T, G14A, G15C
# DNA 2: B3 DNA 2 with C179G, C180T, G182A
# B8: 15-N601-15 free DNA unmethylated (dsDNA)
# DNA 1: B1 DNA 1
# DNA 2: B1 DNA 2
# B9: 15-N601-15 free DNA -61 meCpG (dsDNA)
# DNA 1: B1 DNA 1
# DNA 2: B1 DNA 2
# modifications: meCpG at -61
# B10: 15-N601-15 free DNA -1 meCpG (dsDNA)
# DNA 1: B1 DNA 1
# DNA 2: B1 DNA 2
# modifications: meCpG at -1
# B11: 16-N603-30 nucleosome 91 meCpA (nucleosome)
# DNA 1: B3 DNA 1 with C12T, G14A, G15C
# DNA 2: B3 DNA 2 with C179G, C180T, G182A
# modifications: asymmetric meCpA at 91
# B12: 16-N603-30 nucleosome 81 meCpA (nucleosome)
# DNA 1: B3 DNA 1 with C12T, G14A, G15C
# DNA 2: B3 DNA 2 with C179G, C180T, G182A
# modifications: asymmetric meCpA at 81
# B13: N601 nucleosome core particle -61 meCpG (nucleosome)
# DNA 1: CAGGATGTATATATCTGACACGTGCCTGGAGACTAGGGAGTAATCCCCTTGGCGGTTAAAACGCGGGGGACAGCGCGTACGTGCGTTTAAGCGGTGCTAGAGCTGTCTACGACCAATTGAGCGGCCTCGGCACCGGGATTCTCCA
# DNA 2: TGGAGAATCCCGGTGCCGAGGCCGCTCAATTGGTCGTAGACAGCTCTAGCACCGCTTAAACGCACGTACGCGCTGTCCCCCGCGTTTTAACCGCCAAGGGGATTACTCCCTAGTCTCCAGGCACGTGTCAGATATATACATCCTG
# modifications: meCpG at -61
# B14: 16-N603-30 +81 CG nucleosome 81 meCpG (nucleosome)
# DNA 1: B3 DNA 1 with C12T, G14A, G15C, T22C, A24G, C25G
# DNA 2: B3 DNA 2 with G169C, T170C, A172G, C179G, C180T, G182A
# modifications: meCpG at 81
# B15: 16-N603-30 +91 CG nucleosome 91 meCpG (nucleosome)
# DNA 1: B3 DNA 1
# DNA 2: B3 DNA 2
# modifications: meCpG at 91
# B16: N601-15 nucleosome 81 meCpA (nucleosome)
# DNA 1: ATGGAACACATTGCACAGGATGTATATATCTGACACGTGCCTGGAGACTAGGGAGTAATCCCCTTGGCGGTTAAAACGCGGGGGACAGCGCGTACGTGCGTTTAAGCGGTGCTAGAGCTGTCTACGACCAATTGAGCGGCCTCGGCACCGGGATTCTCCA
# DNA 2: TGGAGAATCCCGGTGCCGAGGCCGCTCAATTGGTCGTAGACAGCTCTAGCACCGCTTAAACGCACGTACGCGCTGTCCCCCGCGTTTTAACCGCCAAGGGGATTACTCCCTAGTCTCCAGGCACGTGTCAGATATATACATCCTGTGCAATGTGTTCCAT
# modifications: asymmetric meCpA at 81
# B17: N601-15 nucleosome (single 15 bp linker) (nucleosome)
# DNA 1: B16 DNA 1
# DNA 2: B16 DNA 2
# Target: MeCP2 full-length, e2 isoform;histone H1.0;histone octamer (Homo sapiens;Homo sapiens;, UniProt P51608;P07305;P0C0S8;P62807;P68431;P62805 1-486;1-194;2-130;2-126;2-136;2-103, ||H2B T115C;H3.1 C96S;C110A)
# Experiment: EMSA; histone H1.0 pre-bound (chromatosome); 20 mM HEPES pH 7.5, 75 mM NaCl, 125 mM KCl, 50 uM EDTA, 2.5 mM beta-mercaptoethanol, 5% glycerol, BSA, 1.58 uM 47 bp competitor DNA (nucleosome assays); absent w
# Conditions: not given
row,Binder,binding result
1,B1,no binding
2,B2,no binding

# Target: MeCP2 full-length, e2 isoform (Homo sapiens, UniProt P51608 1-486)
# Experiment: EMSA; 20 mM HEPES pH 7.5, 75 mM NaCl, 125 mM KCl, 50 uM EDTA, 2.5 mM beta-mercaptoethanol, 5% glycerol, BSA, 1.58 uM 47 bp competitor DNA (nucleosome assays; absent with free DNA), room temperature 30 min
# Conditions: protein: recombinant; tags: none; blunt
row,Binder,Kd [nM]
1,B3,24.6 ± 1.7
2,B4,27.8 ± 1.9
3,B5,23.8 ± 1.2

# Same assay, conditions: protein: recombinant; tags: none; label: 5' 6-FAM
row,Binder,Kd [nM]
1,B6,27.1 ± 1.8
2,B7,46.2 ± 2.8

# Same assay, conditions: protein: recombinant; tags: none; label: 5' 6-FAM; blunt
row,Binder,Kd [nM]
1,B8,75.9 ± 4.2
2,B9,50.5 ± 1.9
3,B10,45.3 ± 2

# Target: MeCP2 AT-DIRmut;histone octamer (Homo sapiens;, UniProt P51608;P0C0S8;P62807;P68431;P62805 1-486;2-130;2-126;2-136;2-103, R188G;R190G;K254N;K256N;R268Q|H2B T115C;H3.1 C96S;C110A)
# Experiment: EMSA; 20 mM HEPES pH 7.5, 75 mM NaCl, 125 mM KCl, 50 uM EDTA, 2.5 mM beta-mercaptoethanol, 5% glycerol, BSA, 1.58 uM 47 bp competitor DNA (nucleosome assays); absent w
# Conditions: not given
row,Binder,Kd [nM]
1,B1,71.3
2,B2,78.6
3,B11,25.3
4,B12,42.2

# Target: HisMBP-MeCP2 162-309;histone octamer (Homo sapiens;, UniProt P51608;P0C0S8;P62807;P68431;P62805 162-309;2-130;2-126;2-136;2-103, |H2B T115C;H3.1 C96S;C110A)
# Experiment: as above
# Conditions: not given
row,Binder,Kd [nM]
1,B11,103

# Target: MeCP2 full-length, e2 isoform;histone octamer (Homo sapiens;, UniProt P51608;P0C0S8;P62807;P68431;P62805 1-486;2-130;2-126;2-136;2-103, |H2B T115C;H3.1 C96S;C110A)
# Experiment: as above
# Conditions: not given
Binder,Kd [nM],binding result
B1,130,
B2,137,
B13,,no binding
B11,57.1,
B12,65.3,
B14,65.5,
B15,71.3,
B16,357,
B17,419,

# Target: MeCP2 MBD;histone octamer (Homo sapiens;, UniProt P51608;P0C0S8;P62807;P68431;P62805 77-167;2-130;2-126;2-136;2-103, |H2B T115C;H3.1 C96S;C110A)
# Experiment: as above
# Conditions: not given
row,Binder,Kd [nM]
1,B1,812
2,B2,809
3,B11,85.7
4,B12,268

# Target: MeCP2 R133G;histone octamer (Homo sapiens;, UniProt P51608;P0C0S8;P62807;P68431;P62805 1-486;2-130;2-126;2-136;2-103, R133G|H2B T115C;H3.1 C96S;C110A)
# Experiment: as above
# Conditions: not given
row,Binder,Kd [nM]
1,B1,522
2,B2,534
3,B11,162
